± gives the uncertainty stated by the source.
Test: self-splicing fitness, log relative to wild type (ln ratio); higher = more splicing; Tetrahymena group I intron in knt gene, E. coli kanamycin selection, DiMSum; sequences stand for … in CUCUCU…GGAGGGAAAAGUUAUCAGGCAUGCACCUGGUAGCUAGUCUUUAAACCAAUAGAUUGCAUCGGUUUAAAAGGCAAGACCGUCAAAUUGCGGGAAAGGGGUCAACAGCCGUUCAGUACCAAGUCUCAGGGGAAACUUUGAGAUGGCCUUGCAAAGGGUAUGGUAAUAAGCUGACGGACAUGGUCCUAACCACGCAGCCAAGUCCUAAGUCAACAGAUCUUCUGUUGAUAUGGAUGCAGUUCACAGACUAAAUGUCGGUCGGGGAAGAUGUAUUCUUCUCAUAAGAUAUAGUCGGACCUCUCCUUAAUGGGAGCUAGCGGAUGAAGUGAUGCAACACUGGAGCCGCUGGGAACUAAUUUGUAUGCGAAAGUAUAUUGAUUAGUUUUGGAGUACUCGUGGUCG
Method in brief: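 DiMSum derived fitness as the error-weighted combination of fold changes across replicates, kanamycin versus no kanamycin, normalised to wild type. E. coli BL21(DE3) held the library, which randomised all eight P1ex-region intron nucleotides within the knt kanamycin-resistance gene on pET-22b(+). Six replicate transformations grew overnight at 37°C or 30°C on LB agar with or without 25 μg/mL kanamycin, also containing 100 μg/mL carbenicillin, 50 μM IPTG and 0.2% rhamnose, and pooled colonies were amplicon-sequenced on an Illumina HiSeq 2500.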

| Sequence | self-splicing fitness (ln) (30 °C) | self-splicing fitness (ln) (37 °C) |
| --- | --- | --- |
| UGACAGCAAUAUUACGGUUC | -2.92 ± 0.11 | -1.79 ± 0.085 |
| UGACAGCAAUAUUACGUAAG | -1.2 ± 0.064 | -0.489 ± 0.067 |
| UGACAGCAAUAUUACGUAUA | -2.19 ± 0.092 | -0.776 ± 0.096 |
| UGACAGCAAUAUUACGUUUG | -2 ± 0.071 | -1.03 ± 0.081 |
| UGAGAGCAAUAUUACGACCA | -1.91 ± 0.14 | -1.14 ± 0.21 |
| UGAGAGCAAUAUUACGAGGA | -3.49 ± 0.34 | -2.83 ± 0.4 |
| UGAGAGCAAUAUUACGCAGU | -4.62 ± 0.34 | -2.41 ± 0.18 |
| UGAGAGCAAUAUUACGCAUC | -4.1 ± 0.46 | -1.8 ± 0.19 |
| UGAGAGCAAUAUUACGCUAC | -2.4 ± 0.49 | – |
| UGAGAGCAAUAUUACGCUCA | – | -1.22 ± 0.38 |
| UGAGAGCAAUAUUACGGAGU | -2.89 ± 0.29 | – |
| UGAGAGCAAUAUUACGGAUU | -3.39 ± 0.29 | – |
| UGAGAGCAAUAUUACGGCGU | -4.04 ± 0.35 | -2.81 ± 0.34 |
| UGAGAGCAAUAUUACGUACU | – | -1.87 ± 0.25 |
| UGAGAGCAAUAUUACGUCGG | -2.21 ± 0.2 | -1.77 ± 0.31 |
| UGAGAGCAAUAUUACGUGCA | -1.53 ± 0.087 | -0.611 ± 0.1 |
| UGAGAGCAAUAUUACGUUCG | -2.08 ± 0.13 | -1.3 ± 0.15 |
| UGAUAGCAAUAUUACGAAAU | -2.83 ± 0.34 | -2.19 ± 0.27 |
| UGAUAGCAAUAUUACGAAGA | -2.56 ± 0.26 | -1.97 ± 0.22 |
| UGAUAGCAAUAUUACGAGAG | -3.29 ± 0.43 | -1.65 ± 0.18 |
| UGAUAGCAAUAUUACGAGCA | -0.12 ± 0.094 | -0.0253 ± 0.14 |
| UGAUAGCAAUAUUACGAGUC | -3.08 ± 0.22 | -3.08 ± 0.4 |
| UGAUAGCAAUAUUACGAUGG | -1.56 ± 0.11 | -1.72 ± 0.16 |
| UGAUAGCAAUAUUACGCAAA | -2.25 ± 0.19 | -0.0467 ± 0.16 |
| UGAUAGCAAUAUUACGCCUG | 0.213 ± 0.14 | 0.502 ± 0.2 |

| Sequence | self-splicing fitness (ln) (30 °C) | self-splicing fitness (ln) (37 °C) |
| --- | --- | --- |
| UGAUAGCAAUAUUACGCGGA | -2.4 ± 0.48 | -0.465 ± 0.29 |
| UGAUAGCAAUAUUACGGGCU | -2.42 ± 0.13 | -2.11 ± 0.14 |
| UGAUAGCAAUAUUACGGGUC | -4.2 ± 0.34 | -2.63 ± 0.37 |
| UGAUAGCAAUAUUACGUACC | -1.76 ± 0.2 | -1.6 ± 0.26 |
| UGAUAGCAAUAUUACGUCGC | – | -2.13 ± 0.39 |
| UGAUAGCAAUAUUACGUCUA | 0.0941 ± 0.089 | -0.107 ± 0.094 |
| UGAUAGCAAUAUUACGUGGA | -3.45 ± 0.3 | -2.23 ± 0.2 |
| UGAUAGCAAUAUUACGUGGG | -2.86 ± 0.17 | -0.621 ± 0.11 |
| UGAUAGCAAUAUUACGUUUA | -2.2 ± 0.12 | -0.742 ± 0.1 |
| UGCAAGCAAUAUUACGAAAU | -3.34 ± 0.2 | -2.04 ± 0.22 |
| UGCAAGCAAUAUUACGAAGG | -1.6 ± 0.12 | -1.47 ± 0.2 |
| UGCAAGCAAUAUUACGAAUA | -1.88 ± 0.12 | -1.04 ± 0.13 |
| UGCAAGCAAUAUUACGACAA | -0.541 ± 0.088 | 0.237 ± 0.1 |
| UGCAAGCAAUAUUACGCAAC | -1.9 ± 0.26 | -2.11 ± 0.28 |
| UGCAAGCAAUAUUACGCAGC | -3.6 ± 0.23 | -2.58 ± 0.23 |
| UGCAAGCAAUAUUACGCUCC | -0.565 ± 0.2 | -1.37 ± 0.34 |
| UGCAAGCAAUAUUACGGACC | -0.803 ± 0.088 | -1.12 ± 0.16 |
| UGCAAGCAAUAUUACGGAGA | -2.45 ± 0.21 | -3.01 ± 0.29 |
| UGCAAGCAAUAUUACGGAGU | -2.83 ± 0.14 | -3.18 ± 0.16 |
| UGCAAGCAAUAUUACGGCUA | 0.00387 ± 0.089 | -0.123 ± 0.1 |
| UGCAAGCAAUAUUACGGGAA | -2.94 ± 0.16 | -1.33 ± 0.12 |
| UGCAAGCAAUAUUACGGGCU | -1.12 ± 0.11 | -1.48 ± 0.14 |
| UGCAAGCAAUAUUACGGGUG | -0.825 ± 0.051 | -0.33 ± 0.065 |
| UGCAAGCAAUAUUACGGUAG | -0.738 ± 0.073 | -0.376 ± 0.081 |
| UGCAAGCAAUAUUACGGUGC | -3.59 ± 0.16 | -2.49 ± 0.19 |

| Sequence | self-splicing fitness (ln) (30 °C) | self-splicing fitness (ln) (37 °C) |
| --- | --- | --- |
| UGCAAGCAAUAUUACGUGAA | -2.26 ± 0.1 | -1.03 ± 0.11 |
| UGCAAGCAAUAUUACGUGCU | -2.02 ± 0.1 | -0.559 ± 0.094 |
| UGCAAGCAAUAUUACGUUCG | -0.427 ± 0.048 | -0.226 ± 0.067 |
| UGCAAGCAAUAUUACGUUUG | -4.16 ± 0.33 | -2.87 ± 0.33 |
| UGCCAGCAAUAUUACGAACU | -2.14 ± 0.11 | -0.854 ± 0.13 |
| UGCCAGCAAUAUUACGAAUG | -1.3 ± 0.18 | 0.0957 ± 0.17 |
| UGCCAGCAAUAUUACGACCC | -3.56 ± 0.24 | -1.42 ± 0.21 |
| UGCCAGCAAUAUUACGAGUU | -2.53 ± 0.17 | -0.56 ± 0.14 |
| UGCCAGCAAUAUUACGAUUG | -1.63 ± 0.078 | -0.196 ± 0.086 |
| UGCCAGCAAUAUUACGCAGA | -2.81 ± 0.2 | -1.66 ± 0.14 |
| UGCCAGCAAUAUUACGCAUU | -3.81 ± 0.46 | -1.24 ± 0.21 |
| UGCCAGCAAUAUUACGCCAG | -3.29 ± 0.18 | -2.39 ± 0.27 |
| UGCCAGCAAUAUUACGCCGG | -4.03 ± 0.21 | -3.05 ± 0.25 |
| UGCCAGCAAUAUUACGCCGU | -3.97 ± 0.39 | -2.32 ± 0.32 |
| UGCCAGCAAUAUUACGCCUG | -2.1 ± 0.16 | -0.0397 ± 0.12 |
| UGCCAGCAAUAUUACGCGGA | -2.24 ± 0.1 | -1.32 ± 0.094 |
| UGCCAGCAAUAUUACGCUCG | -0.839 ± 0.086 | -0.622 ± 0.14 |
| UGCCAGCAAUAUUACGGCAC | -2.9 ± 0.33 | -2.56 ± 0.3 |
| UGCCAGCAAUAUUACGGCGA | -0.122 ± 0.072 | 0.211 ± 0.093 |
| UGCCAGCAAUAUUACGGGAG | -2.75 ± 0.11 | -0.763 ± 0.1 |
| UGCCAGCAAUAUUACGGGUG | -2.99 ± 0.13 | -2.98 ± 0.17 |
| UGCCAGCAAUAUUACGGUAA | -1.15 ± 0.055 | -0.9 ± 0.059 |
| UGCCAGCAAUAUUACGGUAC | – | -2.89 ± 0.47 |
| UGCCAGCAAUAUUACGUAAC | -2.39 ± 0.18 | -2.36 ± 0.2 |
| UGCCAGCAAUAUUACGUACA | -0.269 ± 0.076 | 0.081 ± 0.089 |

| Sequence | self-splicing fitness (ln) (30 °C) | self-splicing fitness (ln) (37 °C) |
| --- | --- | --- |
| UGCCAGCAAUAUUACGUACG | -0.444 ± 0.061 | 0.435 ± 0.084 |
| UGCCAGCAAUAUUACGUCCA | -0.0851 ± 0.076 | 0.335 ± 0.09 |
| UGCCAGCAAUAUUACGUCGG | -4.72 ± 0.41 | -2.68 ± 0.25 |
| UGCCAGCAAUAUUACGUGAU | -2.59 ± 0.14 | -1.6 ± 0.099 |
| UGCCAGCAAUAUUACGUUAA | -2.48 ± 0.15 | -0.729 ± 0.095 |
| UGCCAGCAAUAUUACGUUUU | -3.79 ± 0.18 | -2.56 ± 0.2 |
| UGCGAGCAAUAUUACGAAAG | -2.87 ± 0.29 | -2.87 ± 0.43 |
| UGCGAGCAAUAUUACGAAGG | -1.75 ± 0.2 | -1.91 ± 0.44 |
| UGCGAGCAAUAUUACGACGU | -2.92 ± 0.25 | -0.731 ± 0.17 |
| UGCGAGCAAUAUUACGACUC | -2.71 ± 0.27 | -2.25 ± 0.25 |
| UGCGAGCAAUAUUACGCAUU | -5.15 ± 0.34 | -3.1 ± 0.23 |
| UGCGAGCAAUAUUACGCGGG | -2.61 ± 0.3 | – |
| UGCGAGCAAUAUUACGCUGU | -3.76 ± 0.21 | -2.24 ± 0.31 |
| UGCGAGCAAUAUUACGGACC | -2.33 ± 0.19 | – |
| UGCGAGCAAUAUUACGGCAG | -1.33 ± 0.15 | -1.59 ± 0.21 |
| UGCGAGCAAUAUUACGGCUG | -1.04 ± 0.1 | -0.349 ± 0.15 |
| UGCGAGCAAUAUUACGGGGU | -2.77 ± 0.2 | -3.12 ± 0.35 |
| UGCGAGCAAUAUUACGUGCA | -2.46 ± 0.2 | -1.35 ± 0.21 |
| UGCGAGCAAUAUUACGUUAG | -2.68 ± 0.27 | -2.01 ± 0.33 |
| UGCUAGCAAUAUUACGAACG | -0.171 ± 0.097 | 0.803 ± 0.12 |
| UGCUAGCAAUAUUACGACUU | -0.801 ± 0.2 | -0.152 ± 0.17 |
| UGCUAGCAAUAUUACGAGAC | -3.12 ± 0.35 | -2.11 ± 0.36 |
| UGCUAGCAAUAUUACGAGGA | -2.99 ± 0.26 | -1.62 ± 0.17 |

Source: the supplement of paper PMC7877785
